Test [1] deals with T1, human ROR1 (human, UniProt Q01973 30-937).
T1 construct: whole, on cells; also called ROR1 on tumor cell Panc-1
The test is described as follows: flow cytometry on Panc-1 cells expressing human ROR1. As for the experimental part: (§1) This Example investigates the ability of the bispecific antibody binding tumor cell Panc-1(ATCC, CRL-1469) expressing human ROR1. Specifically, collected cell Panc-1 suspension, adjusted the cell density to 1×10⁶/ml, and inoculated them at 100 μl/well in a 96 well V-bottom plate (Corning, #3894); subsequently, the antibody to be tested with a concentration 2-fold of final concentration obtained by 3-fold gradient dilution was added at volume of 100 μl/well. Cells were incubated at 4° C. in the dark for 2 hours. Afterwards, the cells were rinsed twice with 100 μl/well of pre-chilled PBS, centrifuged at 500 g, 4° C. for 5 minutes. The supernatant was discarded. Then added 100 μl/well of fluorescent secondary antibody Alexa Fluor 488 AffiniPure Goat Anti-Human IgG, Fcγ fragment specific (Jackson ImmunoResearch, #109-545-098), and incubated the cells from light at 4° C. in the dark for 1 hour. Then the cells were rinsed twice with 100 μl/well of pre-chilled PBS, centrifuged at 500 g, for 5 minutes. The supernatant was discarded. Finally, the cells were resuspended with 200 μL/well of pre-chilled PBS. The fluorescent luminescence signal value were read by flow cytometry (BD FACS CANTOII or ACEA NovoCyte), and the resulted data were processed and analyzed by software FlowJo v10 (FlowJo, LLC). […]
(In general: Flow cytometry measures light scatter and fluorescence of single cells or particles in a stream.)

Test [2] deals with T2, human CD3 (human, UniProt P07766 23-207; P09693 23-182; P04234 22-171; P20963 22-164).
T2 construct: whole, on cells; SP34 is described as an anti-human CD3e antibody; also called human TCR/CD3 complex; CD3 on human pan-T cells
The test is described as follows: flow cytometry on human pan-T cells.

Test [3] deals with T2, human CD3. The test is described as follows: flow cytometry on recombinant CHOK1 cells overexpressing human CD3. The text has this:
The flow cytometryFACS was used to analyse the binding of the CD3 antibody to CD3-expressing cells, where the CD3-expressing cells could be: CHOK1 cells overexpressing human CD3 or HEK 293 cells (plasmids encoding the ORF of γ, δ, ε, and ζ chains of human-derived CD3 and plasmids encoding the ORF of α and β chains of human TCR were co-transfected with host cells CHOK1 (ATCC, CCL-61) or HEK293 (ATCC, CRL-1573) to construct stable cell lines expressing the structure of the human TCR/CD3 complex); CHOK1 or HEK293 cells overexpressing cynomolgus monkey CD3; human pan-T cells (isolated with the human pan-T cell isolation kit (Miltenyi, #130-096-535) from PBMC); cynomolgus monkey pan-T cells. Specifically, the collected cells were washed twice with PBS containing 2% FBS (FACS buffer), and resuspended with FACS buffer, divided into 96 well plates with 1×10⁵ cells per well, centrifuged at 500 g for 5 minutes. The supernatant was discarded, and 100 μl of pre-gradient diluted CD3 antibody was added, then incubating for 1 hour at room temperature and washing twice with FACS buffer. […] The fluorescent luminescence signal value were read by flow cytometry (BD FACS CANTOII or ACEA NovoCyte), and the resulted data were processed and analyzed by software FlowJo v10 (FlowJo, LLC). […]

Test [4] concerns the target T3, human B7H4 (human, UniProt Q7Z7D3 25-282).
T3 construct: whole, on cells; also called B7H4 on tumor cell SK-BR-3
T3 sequence (looked up): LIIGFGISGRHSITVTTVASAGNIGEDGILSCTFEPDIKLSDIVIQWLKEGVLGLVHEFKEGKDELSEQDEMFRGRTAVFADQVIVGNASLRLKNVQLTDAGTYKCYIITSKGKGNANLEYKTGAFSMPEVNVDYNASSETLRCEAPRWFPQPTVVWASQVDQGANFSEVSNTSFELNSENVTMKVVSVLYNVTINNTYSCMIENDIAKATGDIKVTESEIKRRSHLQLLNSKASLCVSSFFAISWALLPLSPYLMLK
The test is described as follows: flow cytometry on SK-BR-3 cells expressing human B7H4. On the procedure:
as §1, with “SK-BR-3 (ATCC, HTB-30)” for “Panc-1(ATCC, CRL-1469)”, “B7H4.” for “ROR1.”, “SK-BR-3” for “Panc-1”, “of” for “of fluorescent”

The target of test [5] is T2, human CD3. The test is described as follows: flow cytometry on human pan-T cells; MFI at 7.4 or 10 µg/ml relative to PR000260. The text has this:
The flow cytometryFACS was used to analyse the binding of the CD3 antibody to CD3-expressing cells, where the CD3-expressing cells could be: CHOK1 cells overexpressing human CD3 or HEK 293 cells (plasmids encoding the ORF of γ, δ, ε, and ζ chains of human-derived CD3 and plasmids encoding the ORF of α and β chains of human TCR were co-transfected with host cells CHOK1 (ATCC, CCL-61) or HEK293 (ATCC, CRL-1573) to construct stable cell lines expressing the structure of the human TCR/CD3 complex); CHOK1 or HEK293 cells overexpressing cynomolgus monkey CD3; human pan-T cells (isolated with the human pan-T cell isolation kit (Miltenyi, #130-096-535) from PBMC); cynomolgus monkey pan-T cells. Specifically, the collected cells were washed twice with PBS containing 2% FBS (FACS buffer), and resuspended with FACS buffer, divided into 96 well plates with 1×10⁵ cells per well, centrifuged at 500 g for 5 minutes. The supernatant was discarded, and 100 μl of pre-gradient diluted CD3 antibody was added, then incubating for 1 hour at room temperature and washing twice with FACS buffer. The cells were resuspended with FACS buffer diluted with secondary antibody Alexa Fluor 488 AffiniPure Goat Anti-Human IgG, Fcγ fragment specific (Jackson ImmunoResearch, #109-545-098), then incubated at room temperature in the dark for 30 minutes. The cells were washed twice with FACS buffer, and resuspended with 200 μl FACS buffer. The fluorescent luminescence signal value were read by flow cytometry (BD FACS CANTOII or ACEA NovoCyte), and the resulted data were processed and analyzed by software FlowJo v10 (FlowJo, LLC). The software GraphPad Prism 8 was used for data processing and graphical analysis, and parameters such as binding curves and EC50 values can be obtained by four-parameter nonlinear fitting.
FIG. 7(A) to (G) show the binding ability of the CD3 antibodies obtained in the Example 4.2 (including PR000260 and its mutants) to human pan-T cells, respectively. The fluorescence intensity MFI of the CD3 antibody binding to human pan-T cells and the relative ratio relative to the initial antibody PR000260 were calculated when the antibody concentration was 7.4 or 10 μg/ml.

T2 sequence (P07766 23-207, chain 1 of 4): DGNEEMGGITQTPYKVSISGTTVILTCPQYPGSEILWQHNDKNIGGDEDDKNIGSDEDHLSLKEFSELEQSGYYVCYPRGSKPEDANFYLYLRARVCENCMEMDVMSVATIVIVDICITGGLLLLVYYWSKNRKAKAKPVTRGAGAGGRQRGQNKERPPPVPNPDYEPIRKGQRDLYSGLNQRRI
T2 sequence (P09693 23-182, chain 2 of 4): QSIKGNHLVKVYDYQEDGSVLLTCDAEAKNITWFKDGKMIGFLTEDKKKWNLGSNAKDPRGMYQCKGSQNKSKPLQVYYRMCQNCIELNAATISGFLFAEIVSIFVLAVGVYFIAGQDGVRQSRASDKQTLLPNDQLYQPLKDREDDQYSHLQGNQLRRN
T2 sequence (P04234 22-171, chain 3 of 4): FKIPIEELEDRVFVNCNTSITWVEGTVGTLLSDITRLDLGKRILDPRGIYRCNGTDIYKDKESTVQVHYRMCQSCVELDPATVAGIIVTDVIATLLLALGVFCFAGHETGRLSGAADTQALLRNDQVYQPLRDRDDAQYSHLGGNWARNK
T2 sequence (P20963 22-164, chain 4 of 4): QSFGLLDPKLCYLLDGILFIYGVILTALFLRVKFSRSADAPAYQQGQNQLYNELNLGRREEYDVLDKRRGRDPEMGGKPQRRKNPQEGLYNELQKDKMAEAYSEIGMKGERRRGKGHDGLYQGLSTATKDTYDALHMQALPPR
T1 sequence (Q01973 30-937): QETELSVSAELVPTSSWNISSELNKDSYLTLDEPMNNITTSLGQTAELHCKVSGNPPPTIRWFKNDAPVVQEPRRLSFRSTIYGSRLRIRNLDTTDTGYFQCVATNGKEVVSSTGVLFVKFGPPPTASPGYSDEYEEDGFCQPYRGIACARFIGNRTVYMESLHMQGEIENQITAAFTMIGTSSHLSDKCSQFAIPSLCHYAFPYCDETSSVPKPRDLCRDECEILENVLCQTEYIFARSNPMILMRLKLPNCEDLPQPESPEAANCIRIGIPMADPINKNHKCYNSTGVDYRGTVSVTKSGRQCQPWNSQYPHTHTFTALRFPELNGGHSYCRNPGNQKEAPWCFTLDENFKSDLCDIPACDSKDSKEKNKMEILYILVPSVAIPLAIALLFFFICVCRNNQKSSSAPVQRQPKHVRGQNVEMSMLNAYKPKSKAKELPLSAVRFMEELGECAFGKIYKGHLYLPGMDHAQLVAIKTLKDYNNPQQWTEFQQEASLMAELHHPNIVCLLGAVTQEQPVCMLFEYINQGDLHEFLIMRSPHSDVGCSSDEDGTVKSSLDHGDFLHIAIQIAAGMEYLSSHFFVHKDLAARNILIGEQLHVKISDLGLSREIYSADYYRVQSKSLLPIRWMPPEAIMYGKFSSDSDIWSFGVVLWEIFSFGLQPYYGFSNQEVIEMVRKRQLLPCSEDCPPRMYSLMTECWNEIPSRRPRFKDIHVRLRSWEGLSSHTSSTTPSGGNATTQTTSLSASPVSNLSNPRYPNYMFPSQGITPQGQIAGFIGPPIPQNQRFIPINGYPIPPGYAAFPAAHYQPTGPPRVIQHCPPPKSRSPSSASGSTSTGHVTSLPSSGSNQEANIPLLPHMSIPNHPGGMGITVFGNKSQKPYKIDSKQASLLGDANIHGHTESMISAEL

B1: ROR1 antibody PR000374 (antibody, human IgG1, kappa, V domains shown)
VH: EVQLVESGGGLVQPGRSLRLSCTASGSDINDYPITWVRQAPGQGLEWIGFINSGGSTWYASWVKGRFTISRDDSKSIAYLQMNSLKTEDTAVYYCARGYSTYYRDFNIWGQGTLVTVSS
VL: DIQMTQSPSSLSASVGDRVTINCQASQSIDSNLAWFQQKPGQPPKLLIYRASNLASGVPDRFSGSGSGTDFTLTISSLEAEDVATYYCLGGVGAVSYRTSFGGGTKVEIKR
notes: variable region derived from WO2016094873; also called recombinant IgG antibody PR000374
In the case of B1, the binding result in test [1] is “binds”.

B2: bispecific antibody PR002883 targeting B7H4xCD3 (bispecific antibody)
heavy 1: QAVVTQEPSLTVSPGGTVTLTCRSSTGAVTTSNYANWVQQKPGQAPRGLIGGTNKRAPWTPARFSGSLLGDKAALTLLGAQPEDEAEYFCALWYSNLWVFGGGTKLTVLGGGQSGQGGSGGGGSEVQLVESGGGLVQPGGSLKLSCAASGFTFNTYAMNWVRQASGKGLEWVGRIRSKYNNYATYYADSVKDRFTISRDDSKSTLYLQMNSLKTEDTAVYYCVRHGNFGNSYVSWFAYWGQGTLVTVSSASEPKSSDKTHTCPPCPAPEAAGGPSVFLFPPKPKDTLMISRTPEVTCVVVDVSHEDPEVKFNWYVDGVEVHNAKTKPREEQYNSTYRVVSVLTVLHQDWLNGKEYKCKVSNKALGAPIEKTISKAKGQPREPQVYTLPPCREEMTKNQVSLWCLVKGFYPSDIAVEWESNGQPENNYKTTPPVLDSDGSFFLYSKLTVDKSRWQQGNVFSCSVMHEALHNHYTQKSLSLSPGK
heavy 2: EVQLVQSGAEVKKPGASVKVSCKASGYTFTSYWIGWVRQAPGQGLEWIGDIYPGGGYTNYNEKFKGRVTITRDTSTSTAYLELSSLRSEDTAVYYCARLAGSSYRGAMDSWGQGTLVTVSSASTKGPSVFPLAPSSKSTSGGTAALGCLVKDYFPEPVTVSWNSGALTSGVHTFPAVLQSSGLYSLSSVVTVPSSSLGTQTYICNVNHKPSNTKVDKKVEPKSCDKTHTCPPCPAPEAAGGPSVFLFPPKPKDTLMISRTPEVTCVVVDVSHEDPEVKFNWYVDGVEVHNAKTKPREEQYNSTYRVVSVLTVLHQDWLNGKEYKCKVSNKALGAPIEKTISKAKGQPREPQVCTLPPSREEMTKNQVSLSCAVKGFYPSDIAVEWESNGQPENNYKTTPPVLDSDGSFFLVSKLTVDKSRWQQGNVFSCSVMHEALHNHYTQKSLSLSPGK
light: DIQMTQSPSSLSASVGDRVTITCKASQGFNKYVAWYQQKPGKAPKLLIYYTSTLQPGVPSRFSGSGSGRDYTLTISSLQPEDFATYYCLQYGDLLYAFGQGTKVEIKRTVAAPSVFIFPPSDEQLKSGTASVVCLLNNFYPREAKVQWKVDNALQSGNSQESVTEQDSKDSTYSLSSTLTLSKADYEKHKVYACEVTHQGLSSPVTKSFNRGEC
notes: asymmetric three-chain structure, LALAPG; SDS-PAGE purity 70% after one-step purification; also called B7H4×CD3 bispecific antibody
In the case of B2, the binding result in test [2] is listed as “binds”.

B3: bispecific antibody PR002885 targeting ROR1xCD3 (bispecific antibody, human IgG1, kappa, L234A L235A)
heavy 1: B2 heavy 1
heavy 2: EVQLVESGGGLVQPGRSLRLSCTASGSDINDYPITWVRQAPGQGLEWIGFINSGGSTWYASWVKGRFTISRDDSKSIAYLQMNSLKTEDTAVYYCARGYSTYYRDFNIWGQGTLVTVSSASTKGPSVFPLAPSSKSTSGGTAALGCLVKDYFPEPVTVSWNSGALTSGVHTFPAVLQSSGLYSLSSVVTVPSSSLGTQTYICNVNHKPSNTKVDKKVEPKSCDKTHTCPPCPAPEAAGGPSVFLFPPKPKDTLMISRTPEVTCVVVDVSHEDPEVKFNWYVDGVEVHNAKTKPREEQYNSTYRVVSVLTVLHQDWLNGKEYKCKVSNKALGAPIEKTISKAKGQPREPQVCTLPPSREEMTKNQVSLSCAVKGFYPSDIAVEWESNGQPENNYKTTPPVLDSDGSFFLVSKLTVDKSRWQQGNVFSCSVMHEALHNHYTQKSLSLSPGK
light: DIQMTQSPSSLSASVGDRVTINCQASQSIDSNLAWFQQKPGQPPKLLIYRASNLASGVPDRFSGSGSGTDFTLTISSLEAEDVATYYCLGGVGAVSYRTSFGGGTKVEIKRTVAAPSVFIFPPSDEQLKSGTASVVCLLNNFYPREAKVQWKVDNALQSGNSQESVTEQDSKDSTYSLSSTLTLSKADYEKHKVYACEVTHQGLSSPVTKSFNRGEC
notes: asymmetric three-chain structure, LALAPG; SDS-PAGE purity 70% after one-step purification; also called ROR1×CD3 bispecific antibody
As to B3, the binding result in test [2] is “binds”.

B4: SP34 murine-human chimeric recombinant antibody PR000260 (antibody, human IgG1, lambda, L234A L235A, V domains shown)
VH: EVQLVESGGGLVQPKGSLKLSCAASGFTFNTYAMNWVRQAPGKGLEWVARIRSKYNNYATYYADSVKDRFTISRDDSQSILYLQMNNLKTEDTAMYYCVRHGNFGNSYVSWFAYWGQGTLVTVSA
VL: QAVVTQESALTTSPGETVTLTCRSSTGAVTTSNYANWVQEKPDHLFTGLIGGTNKRAPGVPARFSGSLIGDKAALTITGAQTEDEAIYFCALWYSNLWVFGGGTKLTVLG
notes: IgG1 LALA, lambda; made in HEK293; also called SP34 chimeric antibody; PR000260(SP34)
As to B4, the binding result in test [3] is given as “binds”.

B5: B7H4 antibody PR000014 (antibody, V domains shown)
VH: EVQLVQSGAEVKKPGASVKVSCKASGYTFTSYWIGWVRQAPGQGLEWIGDIYPGGGYTNYNEKFKGRVTITRDTSTSTAYLELSSLRSEDTAVYYCARLAGSSYRGAMDSWGQGTLVTVSS
VL: DIQMTQSPSSLSASVGDRVTITCKASQGFNKYVAWYQQKPGKAPKLLIYYTSTLQPGVPSRFSGSGSGRDYTLTISSLQPEDFATYYCLQYGDLLYAFGQGTKVEIKR
notes: variable region derived from WO2016040724; also called recombinant IgG antibody PR000014
Regarding B5, in test [4], the binding result was “binds”.

B6: PR002472 (antibody, human IgG1, kappa, L234A L235A, V domains shown)
VH: EVQLLESGGGLVQPGGSLRLSCAASGFTFNTYAMNWVRQAPGKGLEWVSRIRSKYNNYATYYADSVKDRFTISRDNSKNTLYLQMNSLRAEDTAVYYCAKHGNFGNSYVSWFAYWGQGTLVTVSS
VL: DAQMTQSPSSLSASVGDRVTITCRSSTGAVTTSNYANWVQQKPGKAPKGLIGGTNKRAPGVPSRFSGSLSGDDATLTISSLQPEDFATYFCALWYSNLWVFGGGTKVEIKR
notes: humanized SP34 variant, IgG1 LALA; very low expression yield; also called VH3230/VK1393 IgG
As for B6, the binding result in test [5] was “binds”.
